system: Escherichia coli TOP10; assay: shrunken log2 fold change of peptide-encoding DNA abundance (4.5 h post-induction vs induction); higher = less antimicrobial activity (less host growth inhibition); conditions: time post-induction: 4.5 h; library: site-saturation at positions 5, 18, 19, 20
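Also: peptides expressed intracellularly from a pBAD plasmid library in pooled LB shake-flask culture, induced with 0.3% L-arabinose, DNA abundance read by NGS, three biological replicates, DESeq2 with apeglm shrinkage.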

Going from RRIRGRPPRLPRPRPRPCPHPRP to RRIRPRPPRLPRPRPRPCNWPRP, the “shrunken log2 fold change” value falls from 0.205 to -0.0706.

Compared with RRIRDRPPRLPRPRPRPDPAPRP, RRIRFRPPRLPRPRPRPCGKPRP is lower in “shrunken log2 fold change” value: 0.304 for the first, -0.018 for the second.

Compared with RRIRDRPPRLPRPRPRPRSTPRP, RRIRTRPPRLPRPRPRPFNLPRP is lower in “shrunken log2 fold change” value: -0.00371 for the first, -0.336 for the second.

Going from RRIRKRPPRLPRPRPRPWPDPRP to RRIRYRPPRLPRPRPRPDYTPRP, the “shrunken log2 fold change” value falls from 0.238 to -0.174.

First: RRIRYRPPRLPRPRPRPVTKPRP
Second: RRIRTRPPRLPRPRPRPKIVPRP
The “shrunken log2 fold change” value of the first is lower: -0.543 for the first, -0.0543 for the second.

Compared with RRIRPRPPRLPRPRPRPHGMPRP, RRIRLRPPRLPRPRPRPYGGPRP is higher in “shrunken log2 fold change” value: -0.531 for the first, -0.0286 for the second.

Compared with RRIRHRPPRLPRPRPRPGAVPRP, RRIRQRPPRLPRPRPRPLEIPRP is lower in “shrunken log2 fold change” value: 0.433 for the first, -0.106 for the second.

Compared with RRIRKRPPRLPRPRPRPHTAPRP, RRIRRRPPRLPRPRPRPSGPPRP is lower in “shrunken log2 fold change” value: 0.239 for the first, -0.0409 for the second.

First: RRIRERPPRLPRPRPRPENTPRP
Second: RRIRKRPPRLPRPRPRPICCPRP
The “shrunken log2 fold change” value of the first is lower: -0.354 for the first, 0.583 for the second.

RRIRSRPPRLPRPRPRPGKKPRP and RRIRPRPPRLPRPRPRPDKEPRP are within 0.2 log units of each other in “shrunken log2 fold change” value: -0.0502 for the first, -0.0375 for the second.

Going from RRIRDRPPRLPRPRPRPYGLPRP to RRIRGRPPRLPRPRPRPLDEPRP, the “shrunken log2 fold change” value rises from -0.0553 to 1.24.

First: RRIRMRPPRLPRPRPRPQLMPRP
Second: RRIRERPPRLPRPRPRPGFAPRP
The “shrunken log2 fold change” value of the first is lower: 0.0471 for the first, 0.604 for the second.

Going from RRIRWRPPRLPRPRPRPQWMPRP to RRIRGRPPRLPRPRPRPGVAPRP, the “shrunken log2 fold change” value rises from 0.0674 to 1.53.

RRIRIRPPRLPRPRPRPLKRPRP and RRIRQRPPRLPRPRPRPMLIPRP are within 0.2 log units of each other in “shrunken log2 fold change” value: -0.0843 for the first, -0.221 for the second.

RRIRVRPPRLPRPRPRPKWSPRP and RRIRTRPPRLPRPRPRPKQMPRP are within 0.2 log units of each other in “shrunken log2 fold change” value: 0.0979 for the first, 0.0252 for the second.

Going from RRIRARPPRLPRPRPRPSYDPRP to RRIRRRPPRLPRPRPRPGRPPRP, the “shrunken log2 fold change” value rises from -0.52 to 0.259.

RRIRMRPPRLPRPRPRPDSPPRP and RRIRHRPPRLPRPRPRPHRNPRP are within 0.2 log units of each other in “shrunken log2 fold change” value: 0.0492 for the first, -0.117 for the second.

Going from RRIRFRPPRLPRPRPRPLGMPRP to RRIRLRPPRLPRPRPRPQPWPRP, the “shrunken log2 fold change” value rises from -0.0132 to 0.319.

Compared with RRIRMRPPRLPRPRPRPPTHPRP, RRIRFRPPRLPRPRPRPACVPRP is lower in “shrunken log2 fold change” value: 0.696 for the first, -0.0826 for the second.

Compared with RRIRPRPPRLPRPRPRPLCMPRP, RRIRVRPPRLPRPRPRPMWQPRP is higher in “shrunken log2 fold change” value: -0.444 for the first, -0.0393 for the second.

RRIRHRPPRLPRPRPRPMNMPRP and RRIRLRPPRLPRPRPRPSASPRP are within 0.2 log units of each other in “shrunken log2 fold change” value: -0.00968 for the first, 0.0218 for the second.

RRIRPRPPRLPRPRPRPFASPRP and RRIRPRPPRLPRPRPRPKKGPRP are within 0.2 log units of each other in “shrunken log2 fold change” value: 0.132 for the first, -0.0676 for the second.

Going from RRIRTRPPRLPRPRPRPSGQPRP to RRIRERPPRLPRPRPRPILGPRP, the “shrunken log2 fold change” value falls from 0.0245 to -0.197.

Compared with RRIRGRPPRLPRPRPRPLHSPRP, RRIRWRPPRLPRPRPRPEHLPRP is lower in “shrunken log2 fold change” value: 0.529 for the first, -0.138 for the second.

RRIRCRPPRLPRPRPRPPHIPRP and RRIRNRPPRLPRPRPRPPFCPRP are within 0.2 log units of each other in “shrunken log2 fold change” value: 0.177 for the first, 0.19 for the second.

Source: the supplement of paper PMC9112550, “Optimization of the antimicrobial peptide Bac7 by deep mutational scanning” (BMC Biology, 2022)
